Target: the molecule itself
Test: SEC; in vitro acid screen of purified VLPs; HPLC SEC peak height relative to pH 7.3 (normalized acid tolerance, n = 3)

B1: MS2 bacteriophage coat protein CP[T71H/E76C] (natural protein)
chain: ASNFTQFVLVDNGGTGDVTVAPSNFANGVAEWISSNSRSQAYKVTCSVRQSSAQNRKYTIKVEVPKVATQHVGGVCLPVAAWRSYLNMELTIPIFATNSDCELIVKAMQGLLKDGNPIPSAIAANSGIY
notes: MS2 bacteriophage coat protein (MS2 CP); also called CP[T71/E76C]; double mutant
  binding result: binds

From article PMC5895741, “Quantitative characterization of all single amino acid variants of a viral capsid-based drug delivery vehicle” (Nature Communications, 2018)
